From patent US20230192896A1 (published 2023) come the findings set out here.

Substitutions are numbered along the chain they refer to.

A word on the Kd: it is the equilibrium constant for the complex coming apart. A higher Kd goes with weaker binding.

For assay [1], the target named is free FIXa (activated Factor IX) (UniProt P00740 47-191; P00740 227-461). Briefly: BLI. Background: BLI is a label-free optical method that tracks binding on a fibre tip over time.
The target in another assay is T1, FX zymogen (UniProt P00742 41-179; P00742 183-488).
T1 chain 1: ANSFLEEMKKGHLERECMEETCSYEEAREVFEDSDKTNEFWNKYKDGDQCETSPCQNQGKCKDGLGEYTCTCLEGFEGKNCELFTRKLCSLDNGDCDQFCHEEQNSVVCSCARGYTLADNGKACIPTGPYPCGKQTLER
T1 chain 2: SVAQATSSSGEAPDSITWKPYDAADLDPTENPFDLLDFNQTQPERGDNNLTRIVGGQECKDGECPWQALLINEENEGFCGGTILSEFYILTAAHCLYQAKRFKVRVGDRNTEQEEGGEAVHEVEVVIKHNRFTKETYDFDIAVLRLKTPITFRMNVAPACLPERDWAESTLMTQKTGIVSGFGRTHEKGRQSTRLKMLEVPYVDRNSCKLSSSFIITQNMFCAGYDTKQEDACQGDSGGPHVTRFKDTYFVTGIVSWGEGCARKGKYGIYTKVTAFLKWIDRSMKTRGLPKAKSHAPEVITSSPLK
Briefly: BLI.

B1: BIIB-9-627 (antibody, V domains shown)
VH: QVQLVQSGAEVKKPGASVKVSCKASGYTFTSYYMHWVRQAPGQGLEWMGIINPSGGSTSYAQKFQGRVTMTRDTSTSTVYMELSSLRSEDTAVYYCARADYDYWSGYGGLGMDVWGQGTTVTVSS
VL: not shown
Molecule B1 had a Kd in assay [1] of 233 nM.

B2: BIIB-12-1288 (antibody, V domains shown)
VH: QVQLVQSGAEVKKPGASVKVSCKASGYTFTSYYMHWVRQAPGQGLEWMGIINPSGGSTSYAQKFQGRVTMTRDTSTSTVYMELSSLRSEDTAVYYCARGGANDYGSSSRWWYFDLWGRGTLVTVSS
VL: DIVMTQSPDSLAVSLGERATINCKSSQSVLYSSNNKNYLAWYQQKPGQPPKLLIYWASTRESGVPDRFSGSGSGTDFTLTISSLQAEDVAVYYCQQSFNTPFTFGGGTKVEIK
Take B2: the Kd with FX zymogen was 85.6 nM.

B3: BIIB-12-920 (antibody, V domains shown)
VH: QVQLVQSGAEVKKPGASVKVSCKASGYTFTSYGISWVRQAPGQGLEWMGWISPYNGNTNYAQKLQGRVTMTTDTSTSTAYMELRSLRSDDTAVYYCARGSGHTTMFWGQGTLVTVSS
VL: EIVMTQSPATLSVSPGERATLSCRASQSVSSNLAWYQQKPGQAPRLLIYSASTRATGIPARFSGSGSGTEFTLTISSLQSEDFAVYYCQQANAYPPTFGGGTKVEI
Consider B3, for which the Kd in the assay with FX zymogen was found to be 27.7 nM.

B4: BIIB-12-934 (antibody, V domains shown)
VH: QVQLVESGGGVVQPGRSLRLSCAASGFTFSSYGMHWVRQAPGKGLEWVAVISYDGSNKYYADSVKGRFTISRDNSKNTLYLQMNSLRAEDTAVYYCARESGGHSYGMDVWGQGTTVTVSS
VL: B3 VL with M4L, S50G, A91F, A93D, Y94H, P96I
In the assay with FX zymogen, B4 displayed a Kd of 60.2 nM.

B5: BIIB-12-1290 (antibody, V domains shown)
VH: QVQLVQSGAEVKKPGASVKVSCKASGYTFTSYYMHWVRQAPGQGLEWMGIINPGGGSTSYAQKFQGRVTMTRDTSTSTVYMELSSLRSEDTAVYYCAREGGRYVRGMDVWGQGTTVTVSS
VL: DIQMTQSPSSVSASVGDRVTITCRASQGISSWLAWYQQKPGKAPKLLIYAASSLQSGVPSRFSGSGSGTDFTLTISSLQPEDFATYYCQQGFSFPFTFGGGTKVEIK
As to B5, the Kd in the assay with FX zymogen turned out to be 16.1 nM.

B6: BIIB-12-896 (antibody, V domains shown)
VH: B5 VH with G54S, E99G, G100L, R102Q, Y103Q, V104R, M107F, V109I, T115L
VL: B5 VL with G91A, F92N
Take B6: binding in the assay with FX zymogen was put at a Kd of 63.4 nM.

B7: BIIB-12-1312 (antibody, V domains shown)
VH: QVQLVESGGGVVQPGRSLRLSCAASGFTFSSYGMHWVRQAPGKGLEWVAVISYDGSNKYYADSVKGRFTISRDNSKNTLYLQMNSLRAEDTAVYYCAKGMGHWIDYWGQGTLVTVSS
VL: B5 VL with G91A, F92S, F96P
The molecule B7 registered a dissociation constant (Kd) with FX zymogen of 14.7 nM.

B8: BIIB-12-895 (antibody, V domains shown)
VH: B5 VH with G54S, E99G, R102Y, Y103K, V104S, M107I, V109Y, T115L
VL: DIQMTQSPSSVSASVGDRVTITCRASQGISSWLAWYQQKPGKAPKLLIYAASSLQSGVPSRFSGSGSGTDFTLTISSLQPEDFATYYCQQASSFPFTFGGGTKVEI
As to B8, in the assay with FX zymogen, binding was put at a Kd of 26.3 nM.

B9: BIIB-12-1323 (antibody, V domains shown)
VH: QVQLVQSGAEVKKPGASVKVSCKASGYTFTSYYIHWVRQAPGQGLEWMGIINPSGGSTSYAQKFQGRVTMTRDTSTSTVYMELSSLRSEDTAVYYCARGRRFPRGLDYWGQGTLVTVSS
VL: B5 VL with G91A, F92N, S93I
In the assay with FX zymogen, B9 gave a Kd of 38.6 nM.

B10: BIIB-12-893 (antibody, V domains shown)
VH: QVQLVQSGAEVKKPGASVKVSCKASGYTFTSYYMVWVRQAPGQGLEWMGIINPSGGSTSYAQKFQGRVTMTRDTSTSTVYMELSSLRSEDTAVYYCARDPGRRQYSFYGMDVWGQGTTVTVSS
VL: B5 VL with M4L, G91A, F92A, S93A
For B10, the Kd in the assay with FX zymogen amounted to 52.2 nM.

B11: BIIB-12-1305 (antibody, V domains shown)
VH: QVQLVESGGGVVQPGRSLRLSCAASGFTFSSYGMHWVRQAPGKGLEWVAVISYDGSNKYYADSVKGRFTISRDNSKNTLYLQMNSLRAEDTAVYYCAKLGGRWSSDFQHWGQGTLVTVSS
VL: EIVLTQSPATLSLSPGERATLSCRASQSVSSYLAWYQQKPGQAPRLLIYDASNRATGIPARFSGSGSGTDFTLTISSLEPEDFAVYYCQQSANWPPTFGGGTKVEIK
In turn, B11 gave a dissociation constant (Kd) in the assay with FX zymogen of 38.8 nM.

B12: BIIB-12-1291 (antibody, V domains shown)
VH: QVQLVQSGAEVKKPGASVKVSCKASGYTFTSYYMHWVRQAPGQGLEWMGIINPSGGSTSYAQKFQGRVTMTRDTSTSTVYMELSSLRSEDTAVYYCARSRRMWVGYFDLWGRGTLVTVSS
VL: B11 VL with S91R, A92L, W94L, P96L
Turning to B12, binding in the assay with FX zymogen was put at a Kd of 42.6 nM.

B13: BIIB-9-419 (antibody, V domains shown)
VH: QVQLVQSGAEVKKPGASVKVSCKASGYTFTSYYMHWVRQAPGQGLEWMGIINPSGGSTSYAQKFQGRVTMTRDTSTSTVYMELSSLRSEDTAVYYCAREPTFYASYFDLWGRGTLVTVS
VL: B11 VL with L4M, A51S, S91V, A92S, N93T, W94H, P96Y
Take B13: binding in assay [1] was characterised by a dissociation constant (Kd) of 21.1 nM.

B14: BIIB-9-1273 (antibody, V domains shown)
VH: QVQLVQSGAEVKKPGASVKVSCKASGYTFTSYYMHWVRQAPGQGLEWMGIINPSGGSTSYAQKFQGRVTMTRDTSTSTVYMELSSLRSEDTAVYYCARDTGGYAFDIWGQGTLVTVSS
VL: B11 VL with S7Y, W94F, P96F
B14 yielded a dissociation constant Kd in assay [1] of 20.9 nM.

B15: BIIB-12-928 (antibody, V domains shown)
VH: QVQLVEFGVGVVQPGRSLRLSCAASGFTFSSYGMHWVRQAPGKGLEWVAVISYDGSNKYYADSVKGRFTISRDNSKNTLYLQMNSLRAEDTAVYYCAKGGTYLDTWGQGTLVTVSS
VL: EIVLTQSPGTLSLSPGERATLSCRASQSVRSSYLAWYQQKPGQAPRLLIYGASSRATGIPDRFSGSGSGTDFTLTISRLEPEDFAVYYCQQYVRFPLTFGGGTKVEIK
For the molecule B15, the Kd with FX zymogen was determined as 23.1 nM.

B16: BIIB-12-900 (antibody, V domains shown)
VH: QVQLVQSGAEVKKPGASVKVSCKASGYTFTSYYMHWVRQAPGQGLEWMGIINPGGGSTSYAQKFQGRVTMTRDTSTSTVYMELSSLRSEDTAVYYCARSGGMYDRELGMDVWGQGTTVTVSS
VL: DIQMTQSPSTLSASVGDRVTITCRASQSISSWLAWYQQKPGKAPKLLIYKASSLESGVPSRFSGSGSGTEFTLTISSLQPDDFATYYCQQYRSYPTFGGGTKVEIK
Regarding B16, in the assay with FX zymogen, the Kd amounted to 25.8 nM.

B17: BIIB-12-1330 (antibody, V domains shown)
VH: QVQLVESGGGVVQPGRSLRLSCAASGFTFSSYGMHWVRQAPGKGLEWVAVISYDGSNKYYADSVKGRFTISRDNSKNTLYLQMNSLRAEDTAVYYCAKGGSARWINIWGQGTTVTVSS
VL: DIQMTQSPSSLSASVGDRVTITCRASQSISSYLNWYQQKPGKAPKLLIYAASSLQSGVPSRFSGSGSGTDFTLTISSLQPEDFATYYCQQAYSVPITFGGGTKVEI
Turning to B17, binding with FX zymogen was put at a Kd of 56.8 nM.

B18: BIIB-12-918 (antibody, V domains shown)
VH: B17 VH with G99S, G100L, S101G, A102G, W104S, I105F, N106D, T113M
VL: B5 VL with V11L, G28S, S31R, W32Y, A34N, G91I, F94L, F96I
In the assay with FX zymogen, B18 returned a Kd of 27.7 nM.

B19: BIIB-12-1289 (antibody, V domains shown)
VH: QVQLVQSGAEVKKPGASVKVSCKASGYTFTSYYMHWVRQAPGQGLEWMGIINPGGGSTSYAQKFQGRVTMTRDTSTSTVYMELSSLRSEDTAVYYCARGPPRTYATGSHNWFDPWGQGTLVTVSS
VL: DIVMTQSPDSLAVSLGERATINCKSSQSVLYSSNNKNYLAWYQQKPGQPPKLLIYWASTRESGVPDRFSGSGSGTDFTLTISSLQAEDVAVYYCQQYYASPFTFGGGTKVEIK
In turn, B19 displayed a Kd in the assay with FX zymogen of 48 nM.

B20: BIIB-12-1299 (antibody, V domains shown)
VH: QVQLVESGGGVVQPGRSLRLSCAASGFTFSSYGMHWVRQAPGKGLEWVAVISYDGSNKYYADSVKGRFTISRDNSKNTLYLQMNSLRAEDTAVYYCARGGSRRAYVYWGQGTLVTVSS
VL: EIVMTQSPATLSVSPGERATLSCRASQSVSSNLAWYQQKPGQAPRLLIYGASTRATGIPARFSGSGSGTEFTLTISSLQSEDFAVYYCQQLNNFPITFGGGTKVEIK
In turn, B20 returned a Kd with FX zymogen of 50.8 nM.

B21: BIIB-12-1304 (antibody, V domains shown)
VH: B17 VH with G100P, S101G, A102S, W104R, I105F, N106D, T113M
VL: B20 VL with L91A, N93V, F94L, I96L
On to B21, for which the affinity with FX zymogen, expressed as Kd, was 50.5 nM.

B22: BIIB-9-616 (antibody, V domains shown)
VH: B14 VH with D99G, T100G, G101S, G102K, A104F, I107L, Q110R
VL: B20 VL with N32S, L91A, N92D, I96F
Take B22: the dissociation constant Kd in assay [1] was determined as 16.8 nM.

B23: BIIB-12-927 (antibody, V domains shown)
VH: QVQLVQSGAEVKKPGASVKVSCKASGYTFTSYYMSWVRQAPGQGLEWMGIINPSGGSTSYAQKFQGRVTMTRDTSTSTVYMELSSLRSEDTAVYYCARDSGRKRYYYMDVWGKGTTVTVSS
VL: B20 VL with L91F, N93L, F94W, I96F
On to B23, for which, in the assay with FX zymogen, the Kd was 26.6 nM.
